# Experiment: yeast display, Sf9 membrane polyspecificity reagent, FACS + sequencing; frameworks hold sequencing errors
# Outline: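 In a synthetic yeast display library (Saccharomyces cerevisiae BJ5465), nanobody expression was induced with galactose for 36–48 hours. FACS gates were set low and high (top ~1%) using anti-HA fluorescence for expression and streptavidin fluorescence for binding of the Sf9 membrane reagent. Each polyreactivity label is drawn from the gate of origin.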
row,Sequence,polyreactivity (PSR sort gate)
1,QVQLVESGGGLVQAGGSLRLSCAASGRTFGIYAMGWYRQAPGKERELVAAITWSGDSTYYADSVKGRVTISRDNAKNTVYLQMNSLKPEDTAVYYGAADYVGVTSVRYDYWGQGTQVTVSS,low polyreactivity
2,QVQLVESGGGLVQAGGSLRLSCAASGRTFGIYAMGWYRQAPGKERELVADITIGGSTYYADSVKGRFTISRDNAKNTVYLQMNSLKPEDTAVYYCNADVVVQYYFTYYRVFTYDYWGQGTQVTVSS,low polyreactivity
3,QVQLVESGGGLVQAGGSLRLSCAASGRTFGIYAMGWYRQAPGKERELVASISWSGGRTYYADSVKGRFTISRDNAKNTVYLQMNSLIPEDTAVYYCAAYGVYYPRSWQYFDWYGYWGQGTQVTVSS,high polyreactivity
4,QVQLVESGGGLVQAGGSLRLSCAASGRTFGIYTMGWYRQAPGKERELVASTYYADSVKGRFTISRDNAKNTVYLQMNSLKPEDTAVYYCNVERLKKSQEWYGYPNDYWGQGTQVTVSS,low polyreactivity
5,QVQLVESGGGLVQAGGSLRLSCAASGRTFGKYAMAWYRQAPGKERELVAAITTRVVITYYADSVKGRFTISRDNAKNTVYLQMNSLKPEDTAVYYCAADPEKIYRPVNHYYYWGQGTQVTVSS,low polyreactivity
6,QVQLVESGGGLVQAGGSLRLSCAASGRTFGKYAMGWYIQAPGKEREFVAAISRSGGNTYYADSVKGRFTISRDNAKNTVYLQMNSLKPEDTAVYYCARGLSTYVLSHGLEYRTYYYWGQGTQVTVTS,high polyreactivity
7,QVQLVESGGGLVQAGGSLRLSCAASGRTFGKYAMGWYRQAPGKERELVARISRRGGTTYYADSVKGRFTISRDNAKNTVYLQMNSLKPEDTAVYYCAAGGTYGAVEEAHDSWGHGTQVTVSS,high polyreactivity
8,QVQLVESGGGLVQAGGSLRLSCAASGRTFGKYTMGWYRQAPGKQRELFAAINRRGGSTYYADSVKGRFTISRDNANNTVYLQMNSLKPEDTAVYYCSTDGYSIDRYYWGQGTQVTESS,high polyreactivity
9,QVQLVESGGGLVQAGGSLRLSCAASGRTFGLNAMGWYIQAPGKERELVAAISGSGGRTYYADSVKGRFTISRDNAKNTVYLQMNSLKPEDTAVYYCARVPSGQLEYDYWGQGTQVTVSS,high polyreactivity
10,QVQLVESGGGLVQAGGSLRLSCAASGRTFGLNAMGWYRQAPGKEMELVAAITSGGSTYYADSVKGRFTISRDNAKNTVYLQMNSLKPEDTAVYYCAVTYNGDSSWPGDYWGQGTQVTVSS,low polyreactivity
11,QVQLVESGGGLVQAGGSLRLSCAASGRTFGLNAMGWYRQAPGKERELVAAITSGGSTYYADSVKGRFTISRDNAKNTVYLQMNSLKPEDTAVYYCAARYWRSYGISDILSDVDYWGQGTQVTVSS,low polyreactivity
12,QVQLVESGGGLVQAGGSLRLSCAASGRTFGLNVMGWYRQAPGKERELVAAISRSGGSTYYADSVKGRFTISRDNAKNTVYLQMNSLKPEDTAVYYCAAVSRYYPYGYWGQGTQVTVSS,high polyreactivity
13,QVQLVESGGGLVQAGGSLRLSCAASGRTFGLYAMGWYRQAPGKERELVAAISYSGGRTYYADSVKGRFTISRDNAKKTVYLQRNSLKPEDTAVYYCNKAWFPYYYYRFDYWGQGTQVTVSS,high polyreactivity
14,QVQLVESGGGLVQAGGSLRLSCAASGRTFGLYAMGWYRQAPGKERELVASNTYSGGRTNYADSVKGRFTISRDNAKNTVYLQMNSLKPEDTAVYYCAASLWDDDSRLMYYWGQGTQVTVSS,high polyreactivity
15,QVQLVESGGGLVQAGGSLRLSCAASGRTFGLYTKAWYIQAPGKERELVAAISSGGITYYADSVKGRFTISRDNAKNTVYLQMNSLKPEDTAVYYCAADFRTTRRYNYRYNYWGQGTQVTVSS,high polyreactivity
16,QVQLVESGGGLVQAGGSLRLSCAASGRTFGNYAMGWSRQAPGKERELVAAITFRGGSTYYADSVKGRFTISRDNAKNTVYLQMNSLKPEDTAVYYCNAERYVGHTYFQFDYWGQGTQVTVSS,high polyreactivity
17,QVQLVESGGGLVQAGGSLRLSCAASGRTFGNYAMGWYRQAPGKERELVASITYTVGNTYYADSVKGRFTISRDNAKNTVYLQMNSLKPEDTAVYYCAADGFYLQFYHYDYWGQGTQVTVSS,low polyreactivity
18,QVQLVESGGGLVQAGGSLRLSCAASGRTFGPNAMGWYRQAPGKEMELVATITYIGGSTYYADSVKGRFTISRDNAKNTVYLQMNSLKPEDTAVYYCAKRGGSYKEGDSWGQGTQVTVSS,low polyreactivity
19,QVQLVESGGGLVQAGGSLRLSCAASGRTFGPYALGWYRQAPGKERELVATSSSNGASTYYADSVKGRFTISRDNAKNTVYLQMNSLKPEDTAVYYCAAEFHFWGYLYDYWGQGTQVTVSS,low polyreactivity
20,QVQLVESGGGLVQAGGSLRLSCAASGRTFGPYAMGWYRQAPGKEREFVAAISYSGGSTYYADSVKGRFTISRDNAKNTVYLQMNSLKPEDTAVYYCAAETYYGRIYWYIRDYWGQGTQVTVSS,low polyreactivity
21,QVQLVESGGGLVQAGGSLRLSCAASGRTFGPYAMGWYRQAPGKERELVAAISSSEGSTYYADSVKGRFTISRDNAKNTVYLQMNSLKPEDTAVYYCNARYYLWSTTRWYGYDYWGQGTQVTVSS,high polyreactivity
22,QVQLVESGGGLVQAGGSLRLSCAASGRTFGPYAMGWYRQAPGKERELVATISSNGASTYYADSVKGRFTISRDNAKNTVYLQMNSLKPEDTAVYYCAAEFHFWGYLYDYWGQGTQVTVSS,low polyreactivity
23,QVQLVESGGGLVQAGGSLRLSCAASGRTFGPYTMGWYRQAPGKEREFVAAINSSGSRTYYADSVKGRFTISRDNAKNTVYLQMNSLKPEDTAVYYCAAEAKWYYSWSYPYEGDYWGQGSQVTVSS,low polyreactivity
24,QVQLVESGGGLVQAGGSLRLSCAASGRTFGQNAMGWYRQAPGKERELVAAISASGSNTYYADSVKGRFTISRDHAKNTVYLQMNSLKPEDTAVYYCAKQVYRPGQQSRYDYWGQGTQVTVSS,low polyreactivity
25,QVQLVESGGGLVQAGGSLRLSCAASGRTFGQYAMGWYRQAPGKERELVAAISWGGGRTYYADSVKGRFTISRDNAKNTVYLQMNSLKPEDTAVYYCNAVYSPRYYVGGYDYWGQGTQVTVSS,high polyreactivity
26,QVQLVESGGGLVQAGGSLRLSCAASGRTFGRNALGWYRQAPGKEREFVAAISRRGDTTYYADSVKGRFTISRDNAKNTVYLQMNSLKPEDTAVYYCNADVIKDRFYWYYYWGQGTQVTVSS,low polyreactivity
27,QVQLVESGGGLVQAGGSLRLSCAASGRTFGRNAMGWYRQAPGKEMELVAAISWTGGNTYYADSVKGRFTISRDNAKNTVYLQMNSLKPEDTAVYYCAARGRYVTPQPSYDYWGQGTQVTVSS,high polyreactivity
28,QVQLVESGGGLVQAGGSLRLSCAASGRTFGRNAMGWYRQAPRKERELVAAISDRGVSTYYADSVKGRFTISRDNAKNTVYLQMNSLKPEDTAVYYCAAVFWVDILPGDYWGQGTQVTVSS,low polyreactivity
29,QVQLVESGGGLVQAGGSLRLSCAASGRTFGRYAMGWSRQAPGKERELVAAINRGGSTKYADSVKGRFTISRDNAKNTVYLQMNSLKPEDTAVYYCAKDRHPAVHYDYWGQGTQVTVSS,low polyreactivity
30,QVQLVESGGGLVQAGGSLRLSCAASGRTFGRYAMGWYRQAPGKEREFVASISRRGGSTNYADSVKGRFTISRDNAKNTVYLQMNSLKPEDTAVYYCAKRFTLPLSEYDYWGQGTQVTVSS,high polyreactivity

# From the nanobody polyreactivity screen of Harvey et al. (2022)
